Test results: patent US20220387578A1
Where a chain is given by its changes, count along the chain named. Numbers in names are those of the source.

B1: rFluA-20 heavy chain mutant Y34A (antibody, V domains shown)
VH: QVQLQESGPGLVKPSETLSLTCSVSGVSVTSDIAYWTWIRQPPGKGLEWIGYIFYNGDTNYNPSLKSRVTMSIDTSKNEFSLRLTSVTAADTAVYFCARGTEDLGYCSSGSCPNHWGQGTLVTVSS
VL: DIQMTQSPSSLSASIGDRVTITCRPSQNIRSFLNWFQHKPGKAPKLLIYAASNLQSGVPSRFSGSGSGTEFTLTIRSLQPEDFATYYCQQSYNTPPTFGQGTKVEIK
B2: rFluA-20 heavy chain mutant Y100aA (antibody, V domains shown)
VH: B1 VH with A34Y, Y106A
VL: B1 VL
B3: rFluA-20 heavy chain mutant T96A (antibody, V domains shown)
VH: B1 VH with A34Y, T101A
VL: B1 VL
B4: rFluA-20 light chain mutant Q55A (antibody, V domains shown)
VH: B1 VH with A34Y
VL: B1 VL with Q55A
B5: rFluA-20 heavy chain mutant E97A (antibody, V domains shown)
VH: B1 VH with A34Y, E102A
VL: B1 VL

What was measured:
[1] = molecular target: H12 HA A/duck/Alberta/60/1976, recombinant (influenza A virus)
[2] = molecular target: H15 HA A/shearwater/Western Australia/2576/1979, recombinant (influenza A virus)
[3] = molecular target: H2 HA A/Singapore/1/1957, recombinant soluble trimer (influenza A virus)
[4] = molecular target: H14 HA A/mallard duck/Astrakhan/263/1982, recombinant (influenza A virus)
[5] = molecular target: H9 HA A/Hong Kong/1073/99, recombinant (influenza A virus)
[6] = molecular target: H7 HA A/Shanghai/2/2013 (H7N9), recombinant uncleaved trimer (influenza A virus)
[7] = molecular target: H5 HA A/Indonesia/05/2005 (H5N1), recombinant (influenza A virus)
[8] = molecular target: H3 HA A/Hong Kong/1/1968 (H3N2), recombinant soluble trimer (influenza A virus), Q91MA7; details: remark: other sources report otherwise

Row | Binder | EC50 [1] | EC50 [2] | EC50 [3] | EC50 [4] | EC50 [5] | EC50 [6] | EC50 relative to wild type rFluA-20 [7] | EC50 relative to wild type rFluA-20 [1] | EC50 relative to wild type rFluA-20 [2] | EC50 relative to wild type rFluA-20 [3] | EC50 relative to wild type rFluA-20 [4] | EC50 relative to wild type rFluA-20 [5] | EC50 relative to wild type rFluA-20 [6] | EC50 [7] | EC50 [8]
1 | B1 | 0.05 µg/mL | 0.1 µg/mL | 0.11 µg/mL | 0.54 µg/mL | 0.21 µg/mL | 0.44 µg/mL | > 100 fold | – | – | – | – | – | – | – | –
2 | B2 | – | – | – | – | – | – | > 100 fold | > 100 fold | > 100 fold | > 100 fold | > 100 fold | > 100 fold | > 100 fold | – | –
3 | B3 | 0.04 µg/mL | 0.07 µg/mL | 0.07 µg/mL | 0.23 µg/mL | 0.1 µg/mL | 0.37 µg/mL | – | – | – | – | – | – | – | 0.11 µg/mL | –
4 | B4 | – | – | – | – | – | – | – | – | – | – | – | – | – | – | 0.08 µg/mL
5 | B5 | 0.06 µg/mL | 0.12 µg/mL | 0.13 µg/mL | 0.64 µg/mL | 0.36 µg/mL | 1 µg/mL | > 100 fold | – | – | – | – | – | – | – | –
